Measurements from article doi:10.1101/2020.12.10.419556.

How the values were obtained:
Assay in all cases: loss of red fluorescence after photoconversion
[1] = target: PhoCl1 empty barrel fragment (residues 1-231), from pBAD/HisB constructs
[2] = target: PhoCl1.5f-MVL empty barrel fragment (residues 1-231)
[3] = target: PhoCl2f empty barrel fragment (residues 1-231)

dissociation t1/2 [1]: 9.5 min | red fluorescence remaining after dissociation [2]: 60% | dissociation t1/2 [3]: 1.27 min
Substance: PhoCl C-terminal peptide fragment (residues 232-242), from pBAD/HisB PhoCl variants
